Measured values from paper PMC6778850, “The flavin mononucleotide cofactor in α-hydroxyacid oxidases exerts its electrophilic/nucleophilic duality in control of the substrate-oxidation level” (Acta Crystallographica. Section D, Structural Biology, 2019).
Changes are numbered by the printed parent chain. Names may count otherwise.

B1: p-hydroxymandelate oxidase (Hmo), 5-deaza-FMN-containing (enzyme, Amycolatopsis orientalis)
chain: MTYVSLADLERAARDVLPGEIFDFLAGGSGTEASLVANRTALERVFVIPRMLRDLTDVTTEIDIFGRRAALPMAVAPVAYQRLFHPEGELAVARAARDAGVPYTICTLSSVSLEEIAAVGGRPWFQLYWLRDEKRSLDLVRRAEDAGCEAIVFTVDVPWMGRRLRDMRNGFALPEWVTAANFDAGTAAHRRTQGVSAVADHTAREFAPATWESVEAVRAHTDLPVVLKGILAVEDARRAVDAGAGGIVVSNHGGRQLDGAVPGIEMLGEIVAAVSGGCEVLVDGGIRSGGDVLKATALGASAVLVGRPVMWALAAAGQDGVRQLLELLAEEVRDAMGLAGCESVGAARRLNTKLGVV
notes: p-hydroxymandelate oxidase (Hmo), product of the hmo gene (orf22) amplified from Amycolatopsis orientalis genomic DNA, cloned in pET-28a(+); no removal of the His6 tag is described; also called 5-deaza-Hmo; wild-type Hmo; source: E. coli BL21(DE3), purified (Ni-NTA, gel filtration); deflavinated and reconstituted with 5-deaza-FMN on an Ni-NTA column
B2: p-hydroxymandelate oxidase (Hmo) Y128F mutant, 5-deaza-FMN-containing (enzyme, Amycolatopsis orientalis)
chain: B1 chain with Y128F
notes: p-hydroxymandelate oxidase (Hmo), product of the hmo gene (orf22) of Amycolatopsis orientalis, point mutant Y128F made with QuikChange; no removal of the His6 tag is described; source: E. coli BL21(DE3), purified (same protocol as wild-type Hmo); deflavinated and reconstituted with 5-deaza-FMN on an Ni-NTA column

Molecular target: the molecule itself
Assay: SEC; analytical gel filtration on a Superdex 200 16/20 column; 5-deaza-FMN-reconstituted protein after the refolding process; self-association (tetramer)

| Protein | stoichiometry N |
| --- | --- |
| B1 | 4 |
| B2 | 4 |
